In publication PMC3002993:

Columns and labels:
Test in all cases: co-immunoprecipitation (HA-specific IP), Western blot densitometry
[1] = biological target: envelope glycoprotein E2 of JFH1 (UniProt Q99IB8); details: harvested 72 h later, two independent experiments, read off a plot
[2] = biological target: nonstructural protein 3 (NS3) of JFH1 (UniProt Q99IB8); details: Huh7.5 cells transfected with full-length genome, harvested 72 h later; two independent experiments; read off a plot
[3] = biological target: nonstructural protein 5A (NS5A) of JFH1mut4-6 (UniProt Q99IB8); details: Huh7.5 cells transfected with full-length genome, harvested 72 h later; two independent experiments; read off a plot
[4] = biological target: p7 of JFH1 (UniProt Q99IB8); details: Huh7.5 cells transfected with full-length genome, harvested 72 h later; two independent experiments; read off a plot
[5] = biological target: E2 V341A of JFH1; details: F77A-E2 genome; Huh7.5 cells, harvested 72 h later; two independent experiments; read off a plot
[6] = biological target: NS3 Q221L of JFH1; details: W35F-NS3 genome; Huh7.5 cells, harvested 72 h later; two independent experiments; read off a plot

## HA- and Flag-tagged NS2 of JFH1mut4-6 (HAF-NS2) (from UniProt Q99IB8) CT1.h
[1]; Huh7.5 cells transfected with full-length genome
  percent of parent: 30%
[1]; genome also carries the pseudoreversion p7-E3D (CT1.h-p7), Huh7.5 cells
  percent of parent: 84%
[2]
  percent of parent: 26%
[3]
  percent of parent: 56%
[4]
  percent of parent: 23%

## m1; m2 NS2:F77A; E2:V341A
[5]
  percent of parent: 89%

## m1; m4 NS2:W35F; NS3:Q221L
[6]
  percent of parent: 52%
